According to US20250333486A1, “Anti-HSP90 alpha antibody and uses thereof” (NATIONAL HEALTH RESEARCH INSTITUTES, priority 2021, published 2025):

Tests used:
[1] = tested on: PANC-1 cells; experiment: Transwell invasion assay, rHSP90α-induced PANC-1 invasion; format: cell-based, human; conditions: 15 μg/ml rHSP90α plus 10 μg/ml antibody
Experimental: In a 37° C. and 5% CO2 humidified incubator, cancer cells were subjected to serum starvation in 0.5% FBS-containing medium for 16 h, and then added […] After another 24 h, the treated cells were harvested as aliquots (1×10^5 cells per aliquot) in 0.5% FBS-containing culture medium, and then each aliquot was seeded into a top chamber of Transwell inserts pre-coated with 5-fold diluted Matrigel (BD Biosciences). Cells were allowed 16 h to invade through the Matrigel toward the bottom chambers containing culture medium plus 10% FBS. The filters of the Transwell inserts were then fixed and stained with Giemsa. Invasive cells on the lower side of filters were photographed using the Axiovert S100/AxioCam HR microscope system (Carl Zeiss, Oberkochen, Germany) and further quantified by the Image-Pro Plus software (Media Cybernetics, Inc., Silver Spring, MD, USA).

[2] = tested on: PANC-1 cells; experiment: Cell spheroid-forming assay, rHSP90α-induced PANC-1 spheroids; format: cell-based, human; conditions: 15 μg/ml rHSP90α plus 10 μg/ml antibody
Experimental: One thousand cancer cells were seeded onto each well of 24-well plates pre-coated with a 4-mm thick layer of 0.5% agarose. After incubation 24 h with serum-free medium at 37° C. plus a 5% CO2 humidified atmosphere, cells were added with PBS or 15 μg/ml of rHSP90α in the absence or presence of 10 μg/ml of control IgG or the tested anti-HSP90α antibody. The incubation was kept for 10-14 days with supplements of some fresh serum-free medium every 3 days. Finally, the cell spheroids characterized by tight, non-adherent, and >100 μm in diameter were photographed and counted under an Olympus IX 71 inverted microscope (Center Valley, PA, USA). The spheroid formation % was calculated by the formula: (number of cell spheroids/1000)×100%.

[3] = tested on: Panc 02 plus EndoMT cell grafts; experiment: Therapeutic efficacy in desmoplastic mouse PDAC transplant model; format: in vivo; conditions: 5 mg/kg IV, 3 times at 7-day intervals from Day-20
Experimental: (§1) Mouse experiments were performed with the permission of the Institutional Animal Care and Use Committee of National Health Research Institutes (NHRI-IACUC-106031-A, 109022-M2-S02, and 109196-A). To establish a desmoplastic tumor transplant model, C57BL/6 mice at 12 weeks of age were subcutaneously inoculated with a mix of Panc 02 cells and EndoMT-derived CAFs (i.e. OPN-treated 3B-11 cells). See Fan C S, Chen L L, Hsu T A, et al. Endothelial-mesenchymal transition harnesses HSP90α-secreting M2-macrophages to exacerbate pancreatic ductal adenocarcinoma. J Hematol Oncol 2019;12:138; and Chua K V, Fan C S, Chen L L, Chen C C, Hsieh S C, Huang T S. Octyl gallate induces pancreatic ductal adenocarcinoma cell apoptosis and suppresses endothelial-mesenchymal transition-promoted M2-macrophages, HSP90α secretion, and tumor growth. Cells 2020;9(1):91. Sizes of developing tumors were superficially measured with a Vernier caliper, and tumor volumes were calculated with the formula ½×length×width^2. Real tumors were weighed when mice were sacrificed. To establish a desmoplastic tumor transplant model in humanized mice, NOD-SCID IL2R^null (ASID) mice transplanted with human hematopoietic stem cells (hHSC) were subcutaneously inoculated with a mix of PANC-1 cells and OPN-treated HUVECs. The employed hHSC-transplanted ASID mice were produced from the National Laboratory Animal Center (Taipei, Taiwan) and all contained human CD45^+ cell levels more than 38% of total lymphocytes. To establish an M2-macrophage-exacerbated mouse PDAC model, C57BL/6 mice were subcutaneously inoculated with a mix of Panc 02 cells and rHSP90α-treated BMDMs. Additionally, LSL-KrasG12D/Pdx1-Cre transgenic mice were adopted as a spontaneously PDAC-developing mouse model to evaluate the therapeutic efficacy of HH01 antibody. LSL-KrasG12D and Pdx1-Cre breeder mice were obtained from the Mouse Models of Human Cancers Consortium Repository of the National Cancer Institute (Frederick, Maryland, USA). LSL-KrasG12D mice were crossed with Pdx1-Cre mice to generate LSL-KrasG12D/Pdx1-Cre mice.
For assaying the HSP90α-binding activities of the prepared antibodies, 96-well plates were coated with 12.5 ng/ml of rHSP90α in the capture buffer (BioLegend, San Diego, CA, USA) by overnight incubation at 4° C. The coated plates were washed twice with PBST and then blocked with PBST plus 3% bovine serum albumin (BSA). […] The reactions were stopped by the addition of 0.5 M H2SO4, and OD450 values were measured by an Infinite M200 microplate reader (TECAN, Männedorf, Switzerland). Additionally, the immunoglobulin (IgG) isotype characterization of anti-HSP90α antibodies was performed by using the Mouse Ig Isotyping ELISA Ready-Set-Go!™ Kit (eBioscience™, Thermo Fisher Scientific, Waltham, MA, USA). […]

[4] = tested on: Panc 02 plus rHSP90α-treated BMDM cell grafts; experiment: Therapeutic efficacy in M2-macrophage-exacerbated mouse PDAC model; format: in vivo
Experimental: as §1
For assaying the HSP90α-binding activities of the prepared antibodies, 96-well plates were coated with 12.5 ng/ml of rHSP90α in the capture buffer (BioLegend, San Diego, CA, USA) by overnight incubation at 4° C. The coated plates were washed twice with PBST and then blocked with PBST plus 3% bovine serum albumin (BSA). The prepared antibodies were applied and incubated 2 h at room temperature. After three washes with PBST, horseradish peroxidase-conjugated secondary antibody was added and incubated at 37° C. for another 1 h. After three washes, 0.3 mg/ml of 3,3′,5,5′-tetramethylbenzidine in 0.015% H2O2 was added into each well and incubated in the dark at room temperature for 10 min. The reactions were stopped by the addition of 0.5 M H2SO4, and OD450 values were measured by an Infinite M200 microplate reader (TECAN, Männedorf, Switzerland). Additionally, the immunoglobulin (IgG) isotype characterization of anti-HSP90α antibodies was performed by using the Mouse Ig Isotyping ELISA Ready-Set-Go!™ Kit (eBioscience™, Thermo Fisher Scientific, Waltham, MA, USA). The ELISA protocol was also used to assay the secreted HSP90α levels of mouse serum samples as described previously. See Chen J S, Hsu Y M, Chen C C, Chen L L, Lee C C, Huang T S. Secreted heat shock protein 90α induces colorectal cancer cell invasion through CD91/LRP-1 and NF-κB-mediated integrin αV expression. J Biol Chem 2010;285(33):25458-66.
Mouse tissue sections with a 4-μm thickness were deparaffinized by xylene and rehydrated in graded ethanol dilutions. Antigen retrieval was performed by heating the sections for 15 min in 10 mM of citrate buffer, pH 6.0, under high pressure. The endogenous peroxidase activity was blocked by 0.3% H2O2. Before staining, the sections were blocked 30 min with PBS plus 3% BSA at room temperature in a humidified chamber. […]

[5] = Pharmacokinetic assay in male mice; conditions: IV single dose 10 mg/kg
From the text: Food and water were available ad libitum at all times. For determination of the serum exposure levels of HH01 antibody, blood samples were collected at Day-0.04, 0.08, 0.25, 1, 2, 3, 7, 9, 14, 16, 18, 21, 23, 25, 35, 42, 49, 56, and 63 post administration.

[6] = 5 mg/kg from Day-27, second dose after 7 days
[7] = immunohistofluorescent staining of tumor tissues

B1: HH01: humanized anti-HSP90α IgG1 antibody, mutant of Clone-2-chimera; VH SEQ ID NO: 12, VL SEQ ID NO: 17 (antibody, V domains shown)
VH: EVQLVESGGGLVQPGGSLRLSCAASGFTFKTYAMNWVRQAPGQGLEWVARIRSKSRNYATYYADSVKDRFTISRDDSKNQFYLQMNNLRTEDTAVYYCVVGGSGFDYWGQGTTLTVSS
VL: DVVMTQTPLSLPVSLGDQASISCRSSQSIVHSNGNTYLEWYLQKPGQSPQLLIYKVSNRFSGVPDRFSGSGSGTDFTLTISSVEAEDLGVYYCFQGSHVPWTFGGGTKLEIK
modifications: Heavy chain variable region; Light chain variable region
suppression of rHSP90α-induced invasiveness of PANC-1 cells [1]: superior to Clone-2-hB, Clone-2-hC, and their parental Clone-2
suppression of rHSP90α-induced spheroid formation of PANC-1 cells [2]: most outstanding efficacy
serum HSP90α levels [3]: significant decreases
tumor desmoplasia [3]: significant decreases
tumor growth by weight on Day-41 [3]: indeed repressed
tumor growth kinetics [3]: totally suppressed
elevation of serum HSP90α levels [4, 6]: significantly suppressed
tumor volume [4, 6]: drastic tumor shrinkage upon HH01 treatment was observed immediately after 3 days
tumors on Day-42 [4, 6]: shrank significantly
CD4^+TNF-α^+ (effective T) cells [4, 7]: both increased
CD8^+TNF-α^+ (cytotoxic T) cells [4, 7]: both increased
F4/80^+Arginase1^+ (M2) cells [4, 7]: decrease
F4/80^+iNOS^+ (M1) cells [4, 7]: increase
CD4^+ and CD8^+ cell levels in tumor (immunohistochemistry) ([4]; tumor samples): effectively restored
M2-macrophages in tumor (CD163, CD204 immunohistochemistry) ([4]; tumor samples): M2-macrophage reduction
clearance rate [5]: 4.3 mL/day/kg
volume in steady state [5]: 80 mL/kg
